Data on 2 substances can be found in paper PMC5886171.

Experiment [1] deals with Full-length plasma gelsolin Gly167Arg (human) (UniProt P06396). The experiment is described as follows: SEC-MALS; 200 µl of 4 mg/ml Gly167Arg GSN separated by gel filtration without calcium, on-line MALS, dn/dc 0.185.
For experiment [2], the target named is Gelsolin G2 domain (amino acids 151–266) carrying the Gly167Arg mutation (human) (UniProt P06396). The experiment is described as follows: SEC; analytical gel filtration, Superdex 75 Increase 10/300 GL; 0.5 mg/ml isolated dimer or monomer incubated in 20 mM HEPES pH 7.4, 0.3 M NaCl with 1 mM CaCl2 at 4 °C, 1 mM CaCl2 at 25 °C or 1 mM EDTA at 4 °C; time course. (Size exclusion chromatography separates by hydrodynamic size, large species first.)

Experiment [3] shares this target. The experiment is described as follows: dynamic light scattering; 1 mg/ml monomer in 20 mM HEPES pH 7.4, 0.3 M NaCl, 1 mM CaCl2, incubated at 25 °C; hydrodynamic radius against time, measured at 4 °C; monomer to dimer, pseudo-first-order fit.
Experiment [4] shares this target. Put plainly: dynamic light scattering; 1 mg/ml monomer in 20 mM HEPES pH 7.4, 0.3 M NaCl, 1 mM EDTA, incubated at 4 °C; hydrodynamic radius against time, measured at 4 °C; monomer to dimer, pseudo-first-order fit.

As usually defined, the stoichiometry N is the number of molecules, sites or subunits per partner or assembly. Consider “Full-length plasma gelsolin Gly167Arg (from UniProt P06396 26-782) (natural protein)”, for which the stoichiometry N in experiment [1] was 2.

“Gelsolin G2 domain (amino acids 151–266) carrying the Gly167Arg mutation (from UniProt P06396 178-293) (domain or fragment)” had a fraction of dimers at equilibrium in experiment [2] of 50%. In addition, the results for the pseudo-first-order rate constant k of the conversion of monomers to dimers in experiment [3] and in experiment [4] were 0.6 h⁻¹ and 2.1 h⁻¹, respectively.
